Legend:
[1] = biological target: gliding-associated protein GAP45 (Toxoplasma gondii (endogenous in tachyzoites)) (UniProt Q7Z289); assay: co-IP; polyclonal anti-MLC1 or anti-GAP45 antibodies on [35S]-labelled wild type (RH) and MyoA-KO parasites and on MyoA-iKO parasites +/- ATc, Triton X-100 lysate, autoradiography, bands quantified with ImageJ
[2] = biological target: myosin light chain 1 (MLC1) (Toxoplasma gondii (endogenous in tachyzoites)); assay: as above

## myosin C (MyoC) (natural protein)
[1]
  more MyoC co-precipitated in the absence of MyoA than in its presence: 50%
[2]
  more MyoC co-precipitated in the absence of MyoA than in its presence: 50%

— paper PMC4231161
